This experiment has as its target T1, EBNA2-wt, transiently expressed in HEK 293-T cells (Epstein-Barr virus, UniProt P12978 1-487, arginines of the RG-repeat (aa 339–354) symmetrically or asymmetrically di-methylated (SDMA or ADMA)).
T1 sequence (looked up): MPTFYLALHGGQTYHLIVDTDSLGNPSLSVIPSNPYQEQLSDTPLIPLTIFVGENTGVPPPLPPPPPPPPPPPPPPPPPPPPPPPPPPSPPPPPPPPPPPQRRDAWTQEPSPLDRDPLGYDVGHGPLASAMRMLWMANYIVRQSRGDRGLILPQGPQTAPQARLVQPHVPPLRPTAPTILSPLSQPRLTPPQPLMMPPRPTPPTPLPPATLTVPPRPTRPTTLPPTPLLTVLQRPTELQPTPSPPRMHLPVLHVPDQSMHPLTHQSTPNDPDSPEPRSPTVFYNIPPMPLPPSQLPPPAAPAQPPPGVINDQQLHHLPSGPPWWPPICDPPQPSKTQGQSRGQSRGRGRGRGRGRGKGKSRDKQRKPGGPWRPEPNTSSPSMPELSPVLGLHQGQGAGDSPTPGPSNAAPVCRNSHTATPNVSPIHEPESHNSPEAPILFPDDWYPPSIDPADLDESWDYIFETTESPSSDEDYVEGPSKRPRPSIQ
As to the kind of experiment: cell-based or functional assay.

These results are taken from article PMC3411732, “Binding of the Heterogeneous Ribonucleoprotein K (hnRNP K) to the Epstein-Barr Virus Nuclear Antigen 2 (EBNA2) Enhances Viral LMP2A Expression” (PLoS ONE, 2012).

B1: GFP-hnRNP K (wild type), expressed in 293T cells (natural protein)
chain: not shown
For the molecule B1, the “LMP2A promoter luciferase reporter in DG75 cells; co-expression of hnRNP K-wt (pSG5-HA-hnRNP K) with EBNA2-wt (pSG5-EBNA2)” value is not above 3 fold.
